Measurements as given in the Immune Epitope Database (IEDB).

How the values were obtained:
HLA-A*32:01 = experiment: IEDB peptide-MHC binding, purified MHC/competitive/radioactivity; filed as Kd, often an IC50 or EC50 that approximates it; ≥ and ≤ were set here for values at or beyond the usual limits of such assays; conditions: source organism: Vaccinia virus WR
HLA-B*15:01 [1] = experiment: as above; conditions: source organism: Vaccinia virus WR
HLA-A*30:01 = experiment: as above; conditions: source organism: Vaccinia virus WR
HLA-B*08:01 [2] = experiment: as above; conditions: source organism: Vaccinia virus WR
HLA-B*15:03 = experiment: as above; conditions: source organism: Vaccinia virus WR
HLA-A*26:01 = experiment: IEDB peptide-MHC binding, purified MHC/direct/fluorescence; filed as Kd, often an IC50 or EC50 that approximates it; ≥ and ≤ were set here for values at or beyond the usual limits of such assays; conditions: source organism: Salmonella enterica subsp. enterica serovar Typhimurium
HLA-A*01:01 = experiment: as above
HLA-B*57:01 = experiment: as above
HLA-B*15:17 = experiment: as above
HLA-B*15:01 [3] = experiment: as above
HLA-B*58:01 [4] = experiment: as above
HLA-B*27:05 = experiment: as above
HLA-A*02:01 [5] = experiment: as above
HLA-B*07:02 = experiment: as above
HLA-A*03:01 = experiment: as above
HLA-A*02:03 = experiment: IEDB peptide-MHC binding, purified MHC/competitive/radioactivity; filed as Kd, often an IC50 or EC50 that approximates it; ≥ and ≤ were set here for values at or beyond the usual limits of such assays; conditions: source organism: Dengue virus 2 Jamaica/1409/1983
HLA-A*02:17 = experiment: as above; conditions: source organism: Dengue virus 2 Jamaica/1409/1983
HLA-A*02:06 = experiment: as above; conditions: source organism: Dengue virus 2 Jamaica/1409/1983
HLA-A*02:01 [6] = experiment: IEDB peptide-MHC binding, purified MHC/competitive/fluorescence; ≥ and ≤ were set here for values at or beyond the usual limits of such assays; conditions: source organism: Zaire ebolavirus
HLA-A*24:02 = experiment: as above; conditions: source organism: Zaire ebolavirus
HLA-B*08:01 [7] = experiment: as above; conditions: source organism: Zaire ebolavirus
HLA-A*11:01 [8] = experiment: as above
HLA-B*58:01 [9] = experiment: IEDB peptide-MHC binding, purified MHC/competitive/radioactivity; filed as Kd, often an IC50 or EC50 that approximates it; ≥ and ≤ were set here for values at or beyond the usual limits of such assays
HLA-B*15:01 [10] = experiment: IEDB peptide-MHC binding, purified MHC/competitive/fluorescence; filed as Kd, often an IC50 or EC50 that approximates it; ≥ and ≤ were set here for values at or beyond the usual limits of such assays; conditions: source organism: Bacillus anthracis str. A0488
HLA-A*29:02 = experiment: IEDB peptide-MHC binding, purified MHC/direct/fluorescence; filed as Kd, often an IC50 or EC50 that approximates it; ≥ and ≤ were set here for values at or beyond the usual limits of such assays
HLA-B*48:01 = experiment: as above
HLA-B*44:02 = experiment: as above
HLA-B*46:01 = experiment: as above
HLA-A*69:01 = experiment: as above
HLA-B*18:01 = experiment: as above
HLA-B*40:01 = experiment: as above
HLA-A*31:01 = experiment: as above
HLA-B*53:01 = experiment: IEDB peptide-MHC binding, purified MHC/competitive/radioactivity; filed as Kd, often an IC50 or EC50 that approximates it; ≥ and ≤ were set here for values at or beyond the usual limits of such assays; conditions: source organism: Dengue virus 4 Philippines/H241/1956
HLA-B*39:01 = experiment: IEDB peptide-MHC binding, purified MHC/direct/fluorescence; filed as Kd, often an IC50 or EC50 that approximates it; ≥ and ≤ were set here for values at or beyond the usual limits of such assays; conditions: source organism: West Nile virus
HLA-A*11:01 [11] = experiment: as above; conditions: source organism: West Nile virus
[12] = source organism: Salmonella enterica subsp. enterica serovar Typhimurium
[13] = source organism: Vibrio cholerae
[14] = source organism: Yellow fever virus
[15] = source organism: West Nile virus

KMTRVFNKF
Kd (HLA-A*32:01): 10.6 µM | Kd (HLA-B*15:01 [1]): 7.56 µM | Kd (HLA-A*30:01): 15.1 µM | Kd (HLA-B*08:01 [2]): 10.6 µM | Kd (HLA-B*15:03): 0.000431 µM

KSNGAQQWL
Kd (HLA-A*26:01): ≥ 20 µM | Kd (HLA-A*01:01; [12]): ≥ 20 µM | Kd (HLA-B*57:01; [12]): 2.16 µM | Kd (HLA-B*15:17; [12]): 0.006 µM | Kd (HLA-B*15:01 [3]; [12]): ≥ 20 µM | Kd (HLA-B*58:01 [4]; [12]): 0.355 µM | Kd (HLA-B*27:05; [12]): ≥ 20 µM | Kd (HLA-A*02:01 [5]; [12]): ≥ 20 µM | Kd (HLA-B*07:02; [12]): ≥ 20 µM | Kd (HLA-A*03:01; [12]): ≥ 20 µM

LLLTLLATV
Kd (HLA-A*02:03): 0.00155 µM | Kd (HLA-A*02:17): 0.157 µM | Kd (HLA-A*02:06): 0.00101 µM

QGIVRQRVI
IC50 (HLA-A*02:01 [6]): ≥ 401 µM | IC50 (HLA-A*24:02): 11.4 µM | IC50 (HLA-B*08:01 [7]): 7.35 µM | IC50 (HLA-A*11:01 [8]; source organism: Zaire ebolavirus): ≥ 159 µM

QMEQWGCPW
Kd (HLA-B*57:01; [13]): 5.43 µM | Kd (HLA-B*15:17; [13]): 0.147 µM | Kd (HLA-B*58:01 [4]; [13]): 1.06 µM

SAGESSILR
IC50 (HLA-A*11:01 [8]; source organism: Vaccinia virus Copenhagen): 1.41 µM

TAAVLLLVTH
Kd (HLA-B*58:01 [9]; source organism: Dengue virus 3 Singapore/8120/1995): 0.304 µM

VLQSAANMY
Kd (HLA-B*15:01 [10]): 0.0675 µM

VNRWLFRHL
Kd (HLA-A*01:01; [14]): ≥ 20 µM | Kd (HLA-B*57:01; [14]): ≥ 20 µM | Kd (HLA-A*29:02; [14]): ≥ 20 µM | Kd (HLA-B*48:01; [14]): ≥ 20 µM | Kd (HLA-B*15:01 [3]; [14]): ≥ 20 µM | Kd (HLA-B*58:01 [4]; [14]): ≥ 20 µM | Kd (HLA-B*27:05; [14]): ≥ 20 µM | Kd (HLA-A*02:01 [5]; [14]): ≥ 20 µM | Kd (HLA-B*44:02; [14]): ≥ 20 µM | Kd (HLA-B*46:01; [14]): ≥ 20 µM | Kd (HLA-A*69:01; [14]): ≥ 20 µM | Kd (HLA-B*18:01; [14]): ≥ 20 µM | Kd (HLA-B*40:01; [14]): ≥ 20 µM | Kd (HLA-B*07:02; [14]): ≥ 20 µM | Kd (HLA-A*03:01; [14]): ≥ 20 µM | Kd (HLA-A*31:01; [14]): ≥ 20 µM

WASVKKDLIS
Kd (HLA-B*58:01 [9]; source organism: Dengue virus 1 Brazil/97-11/1997): 0.0813 µM

WVAEIQPQW
Kd (HLA-B*58:01 [9]; source organism: Dengue virus 4 Philippines/H241/1956): 0.0576 µM | Kd (HLA-B*53:01): 0.00652 µM

YCPGTTVTL
Kd (HLA-A*01:01; [15]): ≥ 20 µM | Kd (HLA-B*57:01; [15]): ≥ 20 µM | Kd (HLA-A*29:02; [15]): ≥ 20 µM | Kd (HLA-B*48:01; [15]): ≥ 20 µM | Kd (HLA-B*15:01 [3]; [15]): ≥ 20 µM | Kd (HLA-B*27:05; [15]): ≥ 20 µM | Kd (HLA-B*44:02; [15]): ≥ 20 µM | Kd (HLA-B*46:01; [15]): ≥ 20 µM | Kd (HLA-A*69:01; [15]): ≥ 20 µM | Kd (HLA-B*18:01; [15]): ≥ 20 µM | Kd (HLA-B*40:01; [15]): ≥ 20 µM | Kd (HLA-B*07:02; [15]): ≥ 20 µM | Kd (HLA-A*03:01; [15]): ≥ 20 µM | Kd (HLA-B*39:01): 1.31 µM | Kd (HLA-A*11:01 [11]): ≥ 20 µM | Kd (HLA-A*31:01; [15]): ≥ 20 µM
